Laboratory results taken from paper PMC7395135, “Structures of the human mitochondrial ribosome bound to EF-G1 reveal distinct features of mitochondrial translation elongation” (Nature Communications, 2020).

Molecular target: mitoribosomal protein uL12m (human (endogenous in HEK293S GnTI), UniProt P52815 37-198)
Assay: cryo-EM structure; 150 nM 55S mitoribosomes incubated with 5 uM EF-G1mt and 1 mM GMPPCP at 37 °C for 5 min in HEPES polymix buffer; three classes (I, II, III) from one sample
Conditions: both partners purified

binding result: binds
B1: human mitochondrial elongation factor G1 (natural protein)
chain: not shown
notes: also called EF-G1mt; source: E. coli BL21(DE3) (RIL), purified (Ni-NTA, cation exchange TSKgel SP-5PW)
